These results are taken from paper PMC11214633.

Assay [1] concerns the target prefusion-stabilized PRD-0038 S2 subunit trimer (PRD-0038 sarbecovirus). Nature of the assay: negative-stain EM.
In assay [2] the target is prefusion-stabilized SARS-CoV-1 S2 subunit trimer (SARS-CoV-1). Nature of the assay: negative-stain EM.

The term stoichiometry N denotes a count of units in the complex or per binding partner. For the substance “prefusion-stabilized PRD-0038 S2 subunit trimer (domain or fragment)”, the stoichiometry N in assay [1] was 3.
Turning to “prefusion-stabilized SARS-CoV-1 S2 subunit trimer (domain or fragment)”, the stoichiometry N in assay [2] came to 3.
